For this experiment, the target named is (his)6CfaB, mature CfaB (residues 24–170) with N-terminal hexahistidine tag (enterotoxigenic E. coli (ETEC)) (UniProt E3PPC4). The experiment in a line: pull-down.
UniProt E3PPC4, sequence (E3PPC4 24-170): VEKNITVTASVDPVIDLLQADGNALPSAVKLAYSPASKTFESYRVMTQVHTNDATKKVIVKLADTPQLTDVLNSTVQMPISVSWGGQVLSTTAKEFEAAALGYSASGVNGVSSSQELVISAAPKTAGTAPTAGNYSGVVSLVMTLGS

CfaA (20–238) K9A (natural protein): the CfaA/CfaB ratio is 0.64.

On to “CfaA (20–238), wild type, untagged (pETDuet-1-cfaA) (natural protein)”, for which the CfaA/CfaB ratio was found to be 0.66.
